This is an account of results in US6090929, “Protein binding fragments of gravin” (Oregon Health Science University, dated 2000).

The experiment has as its target recombinant murine RIIα (murine, UniProt P12367). As to the kind of experiment: in situ overlay of fixed, permeabilized PMA-treated HEL cells with recombinant murine RIIα, immunofluorescence.

Procedure: After 1 hr the coverslips were carefully washed in PBS and 0.2% BSA and incubated with either a mixture of FITC conjugated donkey anti-rabbit secondary antibody (1:100 dilution, Jackson ImmunoReasearch Laboratories Inc, West Grove, Pa.) and rhodamine conjugated phalloidin (1 unit/coverslip, Molecular Probes, Inc, Eugene, Oreg.) or secondary antibody alone. […] Prior to incubation with primary antibody, cells were incubated with 80 nM recombinant murine RII for 2 hr and unbound RII removed by washing three times in PBS and 0.2% BSA. […] Control coverslips were treated with the antibody to RII in the absence of exogenous murine RII. Cells were examined using a Leica confocal laser scanning system equipped with a Leitz Fluovert-FU inverted microscope and an argon/krypton laser.
Fixed and permeabilized cells pre-treated with PMA were overlayed with recombinant murine RIIα.

B1: gravin (full length, human; 250 kDa protein of cell lysates) (other)
chain: MGAGSSTEQRSPEQPPEGSSTPAEPEPSGGGPSAEAAPDTTADPAIAASDPATKLLQKNGQLSTINGVAEQDELSLQEGDLNGQKGALNGQGALNSQEEEEVIVTEVGQRDSEDVSERDSDKEMATKSAVVHDITDDGQEENRNIEQIPSSESNLEELTQPTESQANDIGFKKVFKFVGFKFTVKKDKTEKPDTVQLLTVKKDEGEGAAGAGDHQDPSLGAGEAASKESEPKQSTEKPEETLKREQSHAEISPPAESGQAVEECKEEGEEKQEKEPSKSAESPTSPVTSETGSTFKKFFTQGWAGWRKKTSFRKPKEDEVEASEKKKEQEPEKVDTEEDGKAEVASEKLTASEQAHPQEPAESAHEPRLSAEYEKVELPSEEQVSGSQGPSEEKPAPLATEVFDEKIEVHQEEVVAEVHVSTVEERTEEQKTEVEETAGSVPAEELVGMDAEPQEAEPAKELVKLKETCVSGEDPTQGADLSPDEKVLSKPPEGVVSEVEMLSSQERMKVQGSPLKKLFTSTGLKKLSGKKQKGKRGGGDEESGEHTQVPADSPDSQEEQKGESSASSPEEPEEITCLEKGLAEVQQDGEAEEGATSDGEKKREGVTPWASFKKMVTPKKRVRRPSESDKEDELDKVKSATLSSTESTASEMQEEMKGSVEEPKPEEPKRKVDTSVSWEALICVGSSKKRARRRSSSDEEGGPKAMGGDHQKADEAGKDKETGTDGILAGSQEHDPGQGSSSPEQAGSPTEGEGVSTWESFKRLVTPRKKSKSKLEEKSEDSIAGSGVEHSTPDTEPGKEESWVSIKKFIPGRRKKRPDGKQEQAPVEDAGPTGANEDDSDVPAVVPLSEYDAVEREKMEAQQAQKGAEQPEQKAATEVSKELSESQVHMMAAAVADGTRAATIIEERSPSWISASVTEPLEQVEAEAALLTEEVLEREVIAEEEPPTVTEPLPENREARGDTVVSEAELTPEAVTAAETAGPLGSEEGTEASAAEETTEMVSAVSQLTDSPDTTEEATPVQEVEGGVPDIEEQERRTQEVLQAVAEKVKEESQLPGTGGPEDVLQPVQRAEAERPEEQAEASGLKKETDVVLKVDAQEAKTEPFTQGKVVGQTTPESFEKAPQVTESIESSELVTTCQAETLAGVKSQEMVMEQAIPPDSVETPTDSETDGSTPVADFDAPGTTQKDEIVEIHEENEVHLVPVRGTEAEAVPAQKERPPAPSSFVFQEETKEQSKMEDTLEHTDKEVSVETVSILSKTEGTQEADQYADEKTKDVPFFEGLEGSIDTGITVSREKVTEVALKGEGTEEAECKKDDALELQSHAKSPPSPVEREMVVQVEREKTEAEPTHVNEEKLEHETAVTVSEEVSKQLLQTVNVPIIDGAKEVSSLEGSPPPCLGQEEAVCTKIQVQSSEASFTLTAAAEEEKVLGETANILETGETLEPAGAHLVLEEKSSEKNEDFAAHPGEDAVPTGPDCQAKSTPVIVSATTKKGLSSDLEGEKTTSLKWKSDEVDEQVACQEVKVSVAIEDLEPENGILELETKSSKLVQNIIQTAVDQFVRTEETATEMLTSELQTQAHVIKADSQDAGQETEKEGEEPQASAQDETPITSAKEESESTAVGQAHSDISKDMSEASEKTMTVEVEGSTVNDQQLEEVVLPSEEEGGGAGTKSVPEDDGHALLAERIEKSLVEPKEDEKGDDVDDPENQNSALADTDASGGLTKESPDTNGPKQKEKEDAQEVELQEGKVHSESDKAITPQAQEELQKQERESAKSELTES
With B1, the binding result was “binds”.
